Target: TEY (teneurin-2 construct: Transmembrane, EGF-like and YD-repeats; entire long form of the extracellular domain, without cytoplasmic domain) (chicken) (UniProt Q9DER5)
Experiment: cell-based or functional assay

Luciferase activity (GAL4 reporter; cleavage of the BDAD-teneurin-2 fusion): 6 fold
Substance: BDAD-CTEY (GAL4 binding domain and NFkB activation domain fused to full length teneurin-2) (from UniProt P04386 1-147; Q9DER5 1-2802)
